The record followed here is US7183376.

For this test, the target named is soluble CD28-Ig Fc fusion protein (extracellular domain of human CD28 and Fc portion of human IgG1; R&D Systems) (human), P10747. The experiment in a line: competitive FACS on transfected 293 cells; competitor sCTLA-4-Ig; score 0/1/2 = CD28/CTLA-4 binding ratio like / greater / significantly greater than WT hB7-1.

B1: Round 2 CD28A4-9 (ligand)
chain: ITPKSVTKRVKETVMLSCDYNTSTEKLTSLRIYWQKDSKMVLAILPGKVQVWPEYKNRTITDMNDNPRIVILALRLSDSGTYTCVIQKPVLKGAYKLEHLTSVRLMIRADFPVPTINDLGNPSPNIRRLICSTSGGFPRPHLYWLENGEELNATNTTVSQDPETKLYMISSELDFNVTNNHSIVCLIKYGELSVSQIFPWSKPKQEPPIDQLPFWVIIPVSGALVLTAVVLYCPACRHVARWKRTRRNEETVGTERLSPIYLGSAQSRAEVPSLSX
modifications: not fully specified; X: residue not identified in the source; ends and bridges not checked
Take B1: the Binding Score was 1.

B2: Round 2 CD28A12-5 (ligand)
chain: ITPKSVTKRVKETVMLSCDYNTSTEELTSLRIYWRKDSKMXLAILPGKVQVWPEYKNRTITDMNDNLRIVILALRLSDSGTYTCVIQKPDLKGAYKLEHLTSVRLMIRADFPVPTINDLGNPSPNIRRLICSTSGGFPRPHLYWLENGEELNATNTTVSQDPGTELYMISSELDFNVTNNHSIVCLIKYGELLVSQIFPWSKPKQEPPIDQLPFWVIIPVSGALVLTAVVLYCLACRHVARWKRTRRNEETVGTERLSPIYLGSAQSSG
modifications: not fully specified; X: residue not identified in the source; ends and bridges not checked; also: glycosylated membrane protein, sites not given here
B2: the Binding Score was 1.
